From US6991794B1, “Progenitor cell preservation factors and methods for and products of their use” (ImClone Systems Incorporated, priority 1997, dated 2006)
Like-named read-outs stand apart in the source and are kept apart here.

Biological target: T1, murine extracellular domain of the Flt3 receptor fused to the transmembrane and intracellular domains of the human Fms (UniProt P07333+Q00342, A795S/A899S/C564L/C654D/C793H/C831G/D601N/D652H/D673E/D898N/DEL545-556/DEL576-597/DEL711-780/E609N/E612Q/E649S/E789R/E803A/E806A/E865D/F571P/F692T/F788L/F807S/G637D/G866C/H565Y/H671Q/H824N/I560L/I563L/I633L/I640L/I867V/I870V/INS558VACMSIMALLLL/INS573QVRWKII/INS599GNSYTFIDPTQLP/INS709AMLGPSLSPGQDPEGGVDYKNIHLEKKYVRRDSGFSSQGVDTYVEMRPVSTSSNDSFSEQDLD/K569Q/K650T/K800Q/K826H/K871Q/L602E/L684H/L690V/L783G/L815V/L840M/L863I/M626V/M665I/N627E/N784R/N900K/P896L/Q570K/Q641K/R572K/R624K/R708A/R848K/S619A/S634G/S639V/S653A/S685G/S706R/S809N/S841N/S844N/T636E/T667S/T787E/V561L/V616T/V638A/V785P/V811I/V822L/V828A/V846I/V889L/Y631F/Y689L/Y703F/Y796S)
T1 construct: consisting of the murine extracellular domain of the Flt3 receptor fused to the transmembrane and intracellular domains of the human Fms; expressed in transfected cells; host or cells: NIH 3T3 (mFlt3/Fms 3T3 cell line, provided by Dr. Ihor Lemischka)
T1 sequence (Q00342+P07333 with tags, fused parts or gaps Q00342:DEL545-556/Q00342:INS558VACMSIMALLLL/Q00342:I560L/Q00342:V561L/Q00342:I563L/Q00342:C564L/Q00342:H565Y/Q00342:K569Q/Q00342:Q570K/Q00342:F571P/Q00342:R572K/Q00342:INS573QVRWKII/Q00342:DEL576-597/Q00342:INS599GNSYTFIDPTQLP/Q00342:D601N/Q00342:L602E/Q00342:E609N/Q00342:E612Q/Q00342:V616T/Q00342:S619A/Q00342:R624K/Q00342:M626V/Q00342:N627E/Q00342:Y631F/Q00342:I633L/Q00342:S634G/Q00342:T636E/Q00342:G637D/Q00342:V638A/Q00342:S639V/Q00342:I640L/Q00342:Q641K/Q00342:E649S/Q00342:K650T/Q00342:D652H/Q00342:S653A/Q00342:C654D/Q00342:M665I/Q00342:T667S/Q00342:H671Q/Q00342:D673E/Q00342:L684H/Q00342:S685G/Q00342:Y689L/Q00342:L690V/Q00342:F692T/Q00342:Y703F/Q00342:S706R/Q00342:R708A/Q00342:INS709AMLGPSLSPGQDPEGGVDYKNIHLEKKYVRRDSGFSSQGVDTYVEMRPVSTSSNDSFSEQDLD/Q00342:DEL711-780/Q00342:L783G/Q00342:N784R/Q00342:V785P/Q00342:T787E/Q00342:F788L/Q00342:E789R/Q00342:C793H/Q00342:A795S/Q00342:Y796S/Q00342:K800Q/Q00342:E803A/Q00342:E806A/Q00342:F807S/Q00342:S809N/Q00342:V811I/Q00342:L815V/Q00342:V822L/Q00342:H824N/Q00342:K826H/Q00342:V828A/Q00342:C831G/Q00342:L840M/Q00342:S841N/Q00342:S844N/Q00342:V846I/Q00342:R848K/Q00342:L863I/Q00342:E865D/Q00342:G866C/Q00342:I867V/Q00342:I870V/Q00342:K871Q/Q00342:V889L/Q00342:P896L/Q00342:D898N/Q00342:A899S/Q00342:N900K): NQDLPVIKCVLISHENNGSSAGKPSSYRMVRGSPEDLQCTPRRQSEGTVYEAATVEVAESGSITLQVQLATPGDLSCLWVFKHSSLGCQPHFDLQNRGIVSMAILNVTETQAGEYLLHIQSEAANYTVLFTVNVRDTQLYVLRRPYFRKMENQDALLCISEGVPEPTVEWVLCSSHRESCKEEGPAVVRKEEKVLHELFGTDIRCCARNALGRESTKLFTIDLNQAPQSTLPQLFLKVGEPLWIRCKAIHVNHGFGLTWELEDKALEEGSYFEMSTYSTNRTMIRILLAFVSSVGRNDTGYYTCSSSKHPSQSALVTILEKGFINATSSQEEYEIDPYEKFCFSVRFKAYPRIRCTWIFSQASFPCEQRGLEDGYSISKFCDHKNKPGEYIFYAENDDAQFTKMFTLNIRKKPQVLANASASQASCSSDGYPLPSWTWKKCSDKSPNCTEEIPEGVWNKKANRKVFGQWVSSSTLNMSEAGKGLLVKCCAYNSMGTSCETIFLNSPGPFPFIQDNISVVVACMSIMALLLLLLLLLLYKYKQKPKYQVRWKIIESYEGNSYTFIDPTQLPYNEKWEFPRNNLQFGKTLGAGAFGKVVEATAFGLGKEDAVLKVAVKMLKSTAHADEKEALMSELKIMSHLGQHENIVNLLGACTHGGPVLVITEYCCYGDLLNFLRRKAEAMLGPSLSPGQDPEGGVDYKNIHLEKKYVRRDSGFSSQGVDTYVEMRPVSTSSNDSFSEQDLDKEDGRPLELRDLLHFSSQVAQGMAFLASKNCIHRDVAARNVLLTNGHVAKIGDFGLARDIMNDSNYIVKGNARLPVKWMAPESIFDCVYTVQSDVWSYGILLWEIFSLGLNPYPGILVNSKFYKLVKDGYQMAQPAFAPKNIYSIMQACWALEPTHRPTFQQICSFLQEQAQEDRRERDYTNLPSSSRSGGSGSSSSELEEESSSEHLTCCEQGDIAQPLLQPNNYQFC
Assay: mFlt3/Fms 3T3 biological screening assay (XTT)
Assay type: cell-based
Excerpt: A biological screening assay to search for novel stimulators of the Flt3 receptor was developed using NIH 3T3 cells transfected with expression vectors containing cDNA of murine and human Flt3 and the related Fms receptor. The mFlt3/Fms 3T3 cell line is a 3T3 cell line transfected with nucleic acid encoding a fusion protein consisting of the murine extracellular domain of the Flt3 receptor fused to the transmembrane and intracellular domains of the human Fms (provided by Dr. Ihor Lemischka, Princeton University, Princeton, N.J.). The Stk 3T3 cell line is a 3T3 cell line transfected with the full-length human Flt3 receptor (provided by Dr. Donald Small, Johns Hopkins University, Baltimore, Md.). The human FMS 3T3 cell line is a 3T3 cell line transfected with the full-length human Fms receptor (provided by Dr. Charles Sherr, Saint Jude Children's Research Hospital, Memphis, Tenn. Parent 3T3 cells were purchased from American Type Culture Collection (“ATCC”; Manassas, Va.). Receptor-transfected cells contained Neo resistance genes and were maintained in medium containing 750 µg/ml of G418 (Life Technologies, Rockville, Md.).
To create factor-dependence for receptor-transfected 3T3 cells, growth conditions were compromised to permit only ligands to rescue cells from death. To do this, 3T3 cell lines were assayed in 96 well plates (Becton Dickinson Labware, Lincoln Park, N.J.) containing 3,000 cells in 100 μL of serum-free medium consisting of 10% AIMV (Life Technologies) and 90% DMEM. In each experiment, samples were serially diluted two-fold across rows starting at a 1:10 dilution. Viable cells were quantitated after 3-5 days by XTT (2,3-bis[Methoxy-4-nitro-5sulfophenyl]-2H-tetrazolium-5 carboxanilide inner salt) (Sigma, St. Louis, Mo.) (Roehm et al., supra). Relative activity (units/ml) and specific activity (units/mg) are defined as the reciprocal dilution at which half-maximal stimulation of cells was detected.

B1: Pv-FRIL: FRIL family mannose-binding lectin from Phaseolus vulgaris (red kidney bean), SEQ ID NO: 6 (protein)
chain: AQSLSFNFTKFDLDQKDLIFQGDATSTNNVLQLTKLDSGGNPVGASVGRVLFSAPFHLWENSMAVSSFETNLTIQISTPHPYYAADGFAFFLAPHDTVIPPNSWGKFLGLYSNVFRNSPTSENQSFGDVNTDSRVVAVEFDTFPNANIDPNYRHIGIDVNSIKSKETARWEWQNGKTATARISYNSASKKSTVTTFYPGMEVVALSHDVDLHAELPEWVRVGLSASTGEEKQKNTIISWSFTSSLKNNEVKEPKEDMYIANVVRSYTWINDVLSYISNKMYDALNNNHKYVRCSTCMLFMKKK
  response of mFlt3/Fms 3T3 cells: responded in a dose dependent manner
Presence of rhIL1
  response of mFlt3/Fms 3T3 cells: respond to FRIL in the presence of rhIL1
